In this assay the test system is M21 subunit. Description: Far Western blotting: interaction with the M21 subunit. The format is binding, chicken. As to conditions: for recognised by digoxigenin-labelled M21 subunit in Far Western blotting: probe 0.2 μg/ml. How it is done:
A) PP1M 5 μg (track 1), 10 μg bacterial extract containing M110-(R714-I1004) (track 2), MBP-M110-(R714-I004) 1 μg (track 3), MBP-M110-(R714-L934) 1 μg (track 4), MBP-M110-(K933-I1004) 1 μg (track 5), MBP 1 μg (track 6), M110-(M1-E309) 2 μg (lane 7) and M110-(M1-S477) 2 μg (track 8) were run on a 12% SDS/polyacrylamide gel and stained with Coomassie Blue. B) same as A) except that 10-fold less protein was electrophoresed and after transfer to nitrocellulose the proteins were probed with digoxigenin-labelled M21 subunit (0.2 μg/ml). C) same as B) except that, after electrophoresis, the proteins were transferred to nitrocellulose and probed with digoxigenin-labelled M21-(M1-L146) (0.2 μg/ml).
A) GST-M21 5 μg (track 1), M21 5 μg (track 2), M21-(M1-L146) 5 μg (track 3), M21-(M1-E110) 20 μg (track 4) and M21-(E110-K186) 5 μg (track 5) were run on 16.5% polyacrylamide gels and stained with Coomassie Blue. The marker proteins ovalbumin (43 kDa) and carbonic anhydrase (29 kDa) are indicated. B) GST-M21 0.5 μg (track 1), M21 0.5 μg (track 2), M21-M1-L146) 0.5 μg (track 3), M21-(M1-E110) 5 μg (track 4) and M21-(E110-K186) 5 μg (track 5) were electrophoresed as in A) and after transfer to nitrocellulose the blots were probed with digoxigenin-labelled MBP-M110-(K933-I1004) (0.2 μg/Ml). C) same as B) except that, after electrophoresis, the proteins were transferred to nitrocellulose and probed with digoxigenin-labelled M21 subunit (0.2 μg/ml).
PP1M (0.5 μAg) was electrophoresed on a 12% SDS/polyacrylamide gel, transferred to nitrocellulose and probed with digoxigenin-labelled M21 subunit (0.2 μg/ml) (track 1) or digoxigenin-labelled M21-(M1-L146) (0.2 μg/ml) (track 2). The positions of the M110 subunit, the M21 subunit and PP1c are marked.
Proteins were labelled with digoxigenin and Far Western analyses carried out as described, except that the digoxigenin-labelled probe was used at a concentration of 0.2 μg/ml instead of 2 μg/ml. SDS/polyacrylamide gel electrophoresis was carried out on 7.5-15% gels according to Laemmli and on 16.5% gels according to Schagger and von Jagow. Protein was estimated according to Bradford.

Sequence of M21 subunit (as listed by the source): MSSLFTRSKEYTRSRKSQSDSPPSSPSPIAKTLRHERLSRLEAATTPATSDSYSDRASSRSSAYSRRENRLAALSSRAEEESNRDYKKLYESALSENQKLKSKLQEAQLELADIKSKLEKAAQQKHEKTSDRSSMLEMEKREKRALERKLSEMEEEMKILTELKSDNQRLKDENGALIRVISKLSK

B1: MBP-M110-(R714-I1004): maltose binding protein fusion of M110-(R714-I1004) (protein)
chain: RSTRTREQENEEKEKEEKEKQDKEKQEEKKESETKDDDYRQRYSRTVEEPYHRYRPTSTSTSTSSTSSLSTSTSSLSSSSQLNRPNSLIGITSAYSRSGTKESEREGGKKEEEKEEDKSQPKSIRERRRPREKRRSTGVSFWTQDSDENEQEHQSDSEEGTNKKETQSDSLSRYDTGSLSVSSGDRYDSAQGRSGSQSYLEDRKPYCSRLEKEDSTDFKKLYEQILAENEKLKAQLHDTNMELTDLKLQLEKTTQRQERFADRSLLEMEKRVSGKSQYLLGGKKSSRKKDI
modifications: left off: large carriers
B1: the “digoxigenin-labelled probe recognises the full length M21 subunit and M21(M1-L146) in Far Western blotting” value was “recognised”.

B2: MBP-M110-(K933-I1004): maltose binding protein fusion of M110-(K933-I1004) (protein)
chain: KLYEQILAENEKLKAQLHDTNMELTDLKLQLEKTTQRQERFADRSLLEMEKRVSGKSQYLLGGKKSSRKKDI
modifications: left off: large carriers
B2: the “digoxigenin-labelled probe recognises the full length M21 subunit and M21(M1-L146) in Far Western blotting” value was “recognised”.

B3: M110-(R714-L934): chicken gizzard M110 fragment, residues 714-934 (protein)
chain: RSTRTREQENEEKEKEEKEKQDKEKQEEKKESETKDDDYRQRYSRTVEEPYHRYRPTSTSTSTSSTSSLSTSTSSLSSSSQLNRPNSLIGITSAYSRSGTKESEREGGKKEEEKEEDKSQPKSIRERRRPREKRRSTGVSFWTQDSDENEQEHQSDSEEGTNKKETQSDSLSRYDTGSLSVSSGDRYDSAQGRSGSQSYLEDRKPYCSRLEKEDSTDFKKLGTGRRFTTS
modifications: left off: large carriers
Regarding B3, the “recognised by digoxigenin-labelled M21 subunit in Far Western blotting” value is given as “not”.

B4: M110 subunit: 110 kDa myofibrillar-binding subunit of PP1 (protein)
chain: MKMADAKQKRNEQLKRWIGSETDLEPPVVKRKKTKVKFDDGAVFLAACSSGDTEEVLRLLERGADINYANVDGLTALHQACIDDNVDMVKFLVENGANINQPDNEGWIPLHAAASCGYLDIAEYLISQGAHVGAVNSEGDTPLDIAEEEAMEELLQNEVNRQGVDIEAARKEEERIMLRDARQWLNSGHINDVRHAKSGGTALHVAAAKGYTEVLKLLIQARYDVNIKDYDGWTPLHAAAHWGKEEACRILVENLCDMEAVNKVGQTAFDVADEDILGYLEELQKKQNLLHSEKREKKSPLIESTANLDNNQTQKTFKNKETLIMEQEKNASSIESLEHEKADEEEEGKKDESSCSSEEEEDDDSESEAETDKAKTLANANTTSTQSASMTAPSVAGGQGTPTSPLKKFPTSTTKVSPKEEERKDESPASWRLGLRKTGSYGALAEITASKEAQKEKDSAGVIRSASSPRLSSSLDNKEKEKDGKGTRLAYVAPTIPRRLASTSDIDEKENRDSSASSIRSGSSYARRKWEEDVKKNSLNEGPTSLNTSYQRSGSFGRRQDDLVSSNVPSTASTVTSSAGLQKTLPASANTTTKSTTGSTSAGVQSSTSNRLWAEDSTEKEKDSVPTAVTVPVAPSVVNAAATTTAMTTATSGTVSSTSEVRERRRSYLTPVRDEESESQRKARSRQARQSRRSTQGVTLTDLQEAEKTIGRSRSTRTREQENEEKEKEEKEKQDKEKQEEKKESETKDDDYRQRYSRTVEEPYHRYRPTSTSTSTSSTSSLSTSTSSLSSSSQLNRPNSLIGITSAYSRSGTKESEREGGKKEEEKEEDKSQPKSIRERRRPREKRRSTGVSFWTQDSDENEQEHQSDSEEGTNKKETQSDSLSRYDTGSLSVSSGDRYDSAQGRSGSQSYLEDRKPYCSRLEKEDSTDFKKLYEQILAENEKLKAQLHDTNMELTDLKLQLEKTTQRQERFADRSLLEMEKRVSGKSQYLLGGKKSSRKKDI
As to B4, the “recognised by digoxigenin-labelled M21 subunit in Far Western blotting” value is “recognised”.

For the origin of these results see patent US6884600B1, “Protein phosphatase-1 catalytic subunit interactions” (Medical Research Council London, priority 1996, dated 2005).
